Experimental data as given in patent US20230265171A1.

Assays:
Assay in all cases: ELISA, antigen coated at 2 µg/mL
[1] = molecular target: CoV-2 RBD (N354D, D364Y) (SARS-CoV-2) (UniProt P0DTC2)
[2] = molecular target: CoV-2 S (D614G) (SARS-CoV-2) (UniProt P0DTC2)
[3] = molecular target: CoV-2 RBD (W436R) (SARS-CoV-2) (UniProt P0DTC2)
[4] = molecular target: CoV-2 RBD (V367F) (SARS-CoV-2) (UniProt P0DTC2)
[5] = molecular target: CoV-2 S (R683A, R685A) (SARS-CoV-2) (UniProt P0DTC2)
[6] = molecular target: CoV-2 RBD (N354D) (SARS-CoV-2) (UniProt P0DTC2)

Substance | EC50 [1] | EC50 [2] | EC50 [3] | EC50 [4] | EC50 [5] | EC50 [6]
IVIG (Gamunex) | 1320 µg/mL | 1330 µg/mL | 1240 µg/mL | 1130 µg/mL | 2840 µg/mL | 1240 µg/mL
SARS CoV-2 mAb [SAD-S35] (antibody) | 0.05 µg/mL | 0.03 µg/mL | 0.04 µg/mL | 0.04 µg/mL | 0.05 µg/mL | 0.04 µg/mL
